In article PMC6644640:

Target: prostate-specific antigen (PSA), enzymatically active, from human seminal fluid (human, UniProt P07288 25-261)
Assay: chemiluminescence sandwich assay on Si NW surface

prostate-specific antigen (PSA), enzymatically active, from human seminal fluid, sequence (P07288 25-261): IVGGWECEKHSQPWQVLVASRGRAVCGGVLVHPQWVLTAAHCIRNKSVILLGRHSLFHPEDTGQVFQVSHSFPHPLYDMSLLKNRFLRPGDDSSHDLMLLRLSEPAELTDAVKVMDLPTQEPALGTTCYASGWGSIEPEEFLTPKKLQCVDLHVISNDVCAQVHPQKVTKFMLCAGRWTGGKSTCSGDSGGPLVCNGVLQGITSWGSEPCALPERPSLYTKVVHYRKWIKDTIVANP

B1: nonspecific aptamer (32 nt control) (ssDNA)
DNA: AAAAATTAATTTCGAGCGGTAGTTTATCGAAA
modifications: 5'-H3N-(CH2)6
binding result: no binding
